Ends that are not written are not given here.
T1: CD34 peptide (region 191 aa-207aa of the extracellular domain of CD34) coupled to BSA (human, also: coupled to BSA, site not given here)
T1 construct: also called CD34 specific peptide
T1 peptide: LEQNKTSSCAEFKKDRG


Tests used:
[1] = molecular target: T1, CD34 peptide (region 191 aa-207aa of …); assay: not stated: column headed Affinity, with no unit, method or antigen form printed; table of the CD34-peptide-positive monoclonals
[2] = molecular target: T2, human Gpr56 on cells (primary blood cells; 32D-Gpr56 cell line) (human, UniProt Q9Y653 26-693); assay: flow cytometry, 32D-Gpr56 cells, α-rat AF647 secondary; the dashed histogram is taken as the control
T2 construct: whole, on cells; In the nanoparticle assays the cells were gated or isolated by CD34, not by Gpr56
T2 sequence (Q9Y653 26-693): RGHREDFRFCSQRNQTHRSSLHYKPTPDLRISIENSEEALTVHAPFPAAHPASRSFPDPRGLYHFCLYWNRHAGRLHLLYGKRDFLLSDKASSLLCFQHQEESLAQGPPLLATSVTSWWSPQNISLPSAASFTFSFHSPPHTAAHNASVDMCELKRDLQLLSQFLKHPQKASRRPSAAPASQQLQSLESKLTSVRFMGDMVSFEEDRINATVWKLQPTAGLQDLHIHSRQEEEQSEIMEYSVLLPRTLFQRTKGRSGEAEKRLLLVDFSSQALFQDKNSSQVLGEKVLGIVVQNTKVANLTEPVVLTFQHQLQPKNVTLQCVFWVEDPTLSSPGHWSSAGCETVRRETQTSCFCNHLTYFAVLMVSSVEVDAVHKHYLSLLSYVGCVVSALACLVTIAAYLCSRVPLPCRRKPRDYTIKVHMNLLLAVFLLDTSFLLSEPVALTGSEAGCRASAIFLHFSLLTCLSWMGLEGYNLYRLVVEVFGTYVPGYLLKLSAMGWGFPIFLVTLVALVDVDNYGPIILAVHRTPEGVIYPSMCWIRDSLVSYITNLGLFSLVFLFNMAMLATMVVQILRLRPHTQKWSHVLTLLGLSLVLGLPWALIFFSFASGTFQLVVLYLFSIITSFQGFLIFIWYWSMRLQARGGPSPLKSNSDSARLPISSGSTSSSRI

Binder | Affinity [1] | binding result [2]
4.5c5 (antibody, V domains shown, Anti-CD34 hybridoma clone from H2L2 mice) VH: EMQLLESGGGLVQPGGSLRLSCAASGFTFGHYAMTWVRQVPGKGLDWVSAISGGGTFTHYADSVKGRFTTSRDNSKNTLYLQMSSLRAEDTALYYCAKDQGYDYSWYYFDYWGQGTLVTVSS VL: not shown | 1.3e-09 | –
L.1c7 (antibody, V domains shown, Anti-CD34 hybridoma clone from H2L2 mice) VH: EMQLLESGGGLVQPGGSLRLSCAASGFTFGHFAMSWVRQVPGKGLDWVSAISGGGSFTYSADSVKGRFTTSRDNSKNTLYLQMSSLRAEDTALYYCAKDQGYDYSWYYFDFWGQGTLVTVSS VL: DIQMTQSPSTLSASVGDRVTITCRASQSISSWLAWYQQRPGKAPKLLIYKASSLESGVPSRFSGRGSGTEFTLTISSLQPDDFATYYCQQYKSHSITFGQGTRLEIK | 3.9e-09 | –
2.4c10 (antibody, V domains shown, Anti-CD34 hybridoma clone from H2L2 mice) VH: QVQLVESGGGVVQPGRSLRLSCAASGFTFSNYGMHWVRQAPDKGLEWVAVIWYDGSKKYYADSVKGRFTISRDDSKNTLYLQMNSLRAEDTAVYYCARWGELRYDAFDIWGQGTMVTVSS VL: not shown | 3e-08 | –
2.6f11 (antibody, V domains shown, Anti-CD34 hybridoma clone from H2L2 mice) VH: QVQLVESGGGVVQPGRSLRLSCAASGFTFSSYGMHWVRQAPGKGLEWVAVIWYDGSKKYYTDSVKGRFTISRDNSKNTLYLQMNSLRAEDTAVFYCARWGSGNFDSFDIWGQGTMVTVSS VL: DIQMTQSPSTLSASVGDRVTITCRASQSISSWLAWYQQKPGKAPKLLISKASSLESGVPSRFSGSGSGTEFTLTISSLQPDDFATYYCQQYKNYWTFGQGTKVEIK | 2.1e-09 | –
4.5 e5 (antibody, V domains shown, Anti-CD34 hybridoma clone from H2L2 mice) VH: EMQLLESGGGLVQPGGSLRLSCAASGFTFGHYAMTWVRQVPGKGLDWVSAISGGGTFTHYADSVKGRFTTSRDNSKNTLYLQMSSLRAEDTALYYCAKDQGYDYSWYYFDYWGQGTLVTVSS VL: not shown | 8.2e-10 | –
3.2E3 (antibody, V domains shown) VH: QVQLVESGGGVVQPGRSLRLSCVASGFTLSLNGMHWVRQAPGKGLEWVAVIWYDGSNRYYVDSVKGRFTISRDNSKNTLYLQMNSLRAEDTAVYYCARESFLGTFDYWGQGTLVTVSS VL: DIQLTQSPSFLSASVGDRVTITCRASQGISSYLAWYQQKPGKAPKLLIYAASTLQSGVPSRFSGSGSGTEFTLTISSLQPEDFATYYCQQLNSYPYTFGQGTKLEIK | – | no binding (tested: 10 µg/ml)

Reference: US20230405146A1 (HARBOUR ANTIBODIES, published 2023)
